Measured values: US20260184774A1 (GENOME, published 2026)

Tests used:
Test in all cases: ELISA, coated CNTN4 domain sample, anti-human IgG Fc-HRP
[1] = target: T1, Human CNTN4 domain sample D1-4 (human, UniProt Q8IWV2 19-400, limits assumed)
T1 construct: domain: Domain 1 to Domain 4
T1 sequence (looked up): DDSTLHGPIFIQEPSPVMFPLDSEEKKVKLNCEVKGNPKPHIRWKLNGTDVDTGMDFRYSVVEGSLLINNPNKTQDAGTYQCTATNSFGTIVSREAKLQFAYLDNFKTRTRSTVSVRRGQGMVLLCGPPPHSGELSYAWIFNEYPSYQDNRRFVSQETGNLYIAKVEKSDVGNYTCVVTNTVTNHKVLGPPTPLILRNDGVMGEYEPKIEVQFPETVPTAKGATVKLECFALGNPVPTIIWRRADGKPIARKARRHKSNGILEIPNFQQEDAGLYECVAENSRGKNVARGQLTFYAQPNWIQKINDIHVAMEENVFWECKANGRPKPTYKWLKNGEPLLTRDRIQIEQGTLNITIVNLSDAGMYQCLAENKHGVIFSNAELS
Method: (§1) 50 μL of the diluted secondary antibody (Anti-human IgG Fc-HRP) was distributed to each well. The wells were sealed with sealing tape and incubated at 37° C. for 1 hour. The wells were washed tree times after Sealing tape was removed.
(§2) 50 μL of ABTs were distributed in each well. The wells were incubated at room temperature for 30 minutes. The absorbance was detected at 405 nm by using Microplate reader.

[2] = target: T2, Human CNTN4 domain sample D1-9 (human, UniProt Q8IWV2 19-899, limits assumed)
T2 construct: domain: Domain 1 to Domain 9
T2 sequence (looked up): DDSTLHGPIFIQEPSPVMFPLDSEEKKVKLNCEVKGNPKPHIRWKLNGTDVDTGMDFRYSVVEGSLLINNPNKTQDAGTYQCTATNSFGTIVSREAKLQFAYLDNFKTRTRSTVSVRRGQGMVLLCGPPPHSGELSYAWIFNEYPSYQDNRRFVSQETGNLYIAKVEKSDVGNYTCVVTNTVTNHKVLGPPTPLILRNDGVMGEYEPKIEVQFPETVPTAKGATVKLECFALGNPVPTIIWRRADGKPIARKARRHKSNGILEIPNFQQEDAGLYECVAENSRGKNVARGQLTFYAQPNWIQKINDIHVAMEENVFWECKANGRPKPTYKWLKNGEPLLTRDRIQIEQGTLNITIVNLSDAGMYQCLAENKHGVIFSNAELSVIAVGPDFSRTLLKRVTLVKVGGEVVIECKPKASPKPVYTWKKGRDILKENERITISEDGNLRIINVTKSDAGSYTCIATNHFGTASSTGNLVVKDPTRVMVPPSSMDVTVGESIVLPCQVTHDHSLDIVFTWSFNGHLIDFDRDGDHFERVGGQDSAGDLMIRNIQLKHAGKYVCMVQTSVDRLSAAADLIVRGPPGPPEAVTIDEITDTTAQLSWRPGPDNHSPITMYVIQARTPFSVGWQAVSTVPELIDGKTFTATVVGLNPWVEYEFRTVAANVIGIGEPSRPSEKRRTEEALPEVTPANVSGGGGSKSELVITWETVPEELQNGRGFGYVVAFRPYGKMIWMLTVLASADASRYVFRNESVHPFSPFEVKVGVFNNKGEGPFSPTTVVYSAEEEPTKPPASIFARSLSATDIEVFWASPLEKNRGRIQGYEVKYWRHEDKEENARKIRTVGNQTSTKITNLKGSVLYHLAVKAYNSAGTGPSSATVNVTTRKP
Method: as §1, §2

[3] = target: T3, Human CNTN4 domain sample D1-8 (human, UniProt Q8IWV2 19-799, limits assumed)
T3 construct: domain: Domain 1 to Domain 8
T3 sequence (looked up): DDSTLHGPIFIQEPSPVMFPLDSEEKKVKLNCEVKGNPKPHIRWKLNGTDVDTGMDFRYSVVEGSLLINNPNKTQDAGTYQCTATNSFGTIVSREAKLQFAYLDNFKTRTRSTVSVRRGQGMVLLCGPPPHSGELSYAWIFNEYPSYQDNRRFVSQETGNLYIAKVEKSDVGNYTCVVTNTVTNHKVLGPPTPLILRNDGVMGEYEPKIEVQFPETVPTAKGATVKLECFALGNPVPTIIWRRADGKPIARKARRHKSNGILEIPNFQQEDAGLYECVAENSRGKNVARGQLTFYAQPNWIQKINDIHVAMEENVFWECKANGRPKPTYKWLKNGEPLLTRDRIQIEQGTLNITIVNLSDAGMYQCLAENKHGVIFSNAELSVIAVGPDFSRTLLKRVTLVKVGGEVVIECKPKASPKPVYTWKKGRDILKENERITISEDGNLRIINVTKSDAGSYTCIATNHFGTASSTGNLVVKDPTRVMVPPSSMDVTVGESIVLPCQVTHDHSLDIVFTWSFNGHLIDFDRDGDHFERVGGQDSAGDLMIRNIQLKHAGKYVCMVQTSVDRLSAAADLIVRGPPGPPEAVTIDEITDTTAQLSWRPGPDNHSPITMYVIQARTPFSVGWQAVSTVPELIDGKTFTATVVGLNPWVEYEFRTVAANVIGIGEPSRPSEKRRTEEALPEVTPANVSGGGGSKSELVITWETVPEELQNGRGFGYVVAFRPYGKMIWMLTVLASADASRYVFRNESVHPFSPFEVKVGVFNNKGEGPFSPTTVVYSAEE
Method: as §1, §2

[4] = target: T4, Human CNTN4 domain sample D1-5 (human, UniProt Q8IWV2 19-493, limits assumed)
T4 construct: domain: Domain 1 to Domain 5
T4 sequence (looked up): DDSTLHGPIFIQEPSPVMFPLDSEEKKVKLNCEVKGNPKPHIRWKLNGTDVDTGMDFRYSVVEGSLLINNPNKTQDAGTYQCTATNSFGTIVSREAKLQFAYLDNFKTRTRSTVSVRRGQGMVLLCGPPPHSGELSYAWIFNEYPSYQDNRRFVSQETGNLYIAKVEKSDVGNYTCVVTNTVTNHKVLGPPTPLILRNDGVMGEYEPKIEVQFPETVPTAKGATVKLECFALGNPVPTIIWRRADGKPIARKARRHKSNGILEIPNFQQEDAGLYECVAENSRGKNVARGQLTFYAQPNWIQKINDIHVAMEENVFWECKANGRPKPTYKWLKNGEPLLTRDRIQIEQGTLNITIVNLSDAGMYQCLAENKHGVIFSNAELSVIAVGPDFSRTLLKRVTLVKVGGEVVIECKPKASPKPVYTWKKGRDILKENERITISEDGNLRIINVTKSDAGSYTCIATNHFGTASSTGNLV
Method: as §1, §2

[5] = target: T5, Human CNTN4 domain sample Full (Domain 1 to Domain 10) (human, UniProt Q8IWV2 19-1000, limits assumed)
T5 construct: domain: Domain 1 to Domain 10 (Ig1 to Ig6 and FN1 to FN4)
T5 sequence (looked up): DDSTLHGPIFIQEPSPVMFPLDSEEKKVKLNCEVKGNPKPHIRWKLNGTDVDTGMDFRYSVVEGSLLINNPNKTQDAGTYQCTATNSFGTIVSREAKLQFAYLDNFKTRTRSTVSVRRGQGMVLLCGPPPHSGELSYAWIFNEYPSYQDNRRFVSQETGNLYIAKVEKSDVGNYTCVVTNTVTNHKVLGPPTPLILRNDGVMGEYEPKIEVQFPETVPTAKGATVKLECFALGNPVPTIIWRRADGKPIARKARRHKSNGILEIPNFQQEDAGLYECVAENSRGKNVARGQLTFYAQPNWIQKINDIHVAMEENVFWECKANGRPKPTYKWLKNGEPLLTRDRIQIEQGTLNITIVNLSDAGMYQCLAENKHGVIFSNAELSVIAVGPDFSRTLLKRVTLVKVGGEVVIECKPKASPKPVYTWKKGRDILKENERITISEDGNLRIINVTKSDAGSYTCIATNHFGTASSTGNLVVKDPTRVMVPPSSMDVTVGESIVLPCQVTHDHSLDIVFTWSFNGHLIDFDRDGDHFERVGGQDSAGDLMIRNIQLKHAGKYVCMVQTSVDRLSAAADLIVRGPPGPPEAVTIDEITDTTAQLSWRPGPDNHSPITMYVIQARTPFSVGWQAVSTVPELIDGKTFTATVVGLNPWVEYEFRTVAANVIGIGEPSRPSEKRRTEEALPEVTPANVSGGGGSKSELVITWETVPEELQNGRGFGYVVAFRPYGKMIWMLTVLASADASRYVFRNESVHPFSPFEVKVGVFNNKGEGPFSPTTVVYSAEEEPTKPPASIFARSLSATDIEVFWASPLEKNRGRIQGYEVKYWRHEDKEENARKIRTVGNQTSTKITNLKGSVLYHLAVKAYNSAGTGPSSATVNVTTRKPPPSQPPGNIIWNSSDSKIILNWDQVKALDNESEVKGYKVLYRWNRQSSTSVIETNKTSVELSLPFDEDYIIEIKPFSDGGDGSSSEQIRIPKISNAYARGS
Method: as §1, §2

[6] = target: T6, Human CNTN4 domain sample D1-7 (human, UniProt Q8IWV2 19-697, limits assumed)
T6 construct: domain: Domain 1 to Domain 7
T6 sequence (looked up): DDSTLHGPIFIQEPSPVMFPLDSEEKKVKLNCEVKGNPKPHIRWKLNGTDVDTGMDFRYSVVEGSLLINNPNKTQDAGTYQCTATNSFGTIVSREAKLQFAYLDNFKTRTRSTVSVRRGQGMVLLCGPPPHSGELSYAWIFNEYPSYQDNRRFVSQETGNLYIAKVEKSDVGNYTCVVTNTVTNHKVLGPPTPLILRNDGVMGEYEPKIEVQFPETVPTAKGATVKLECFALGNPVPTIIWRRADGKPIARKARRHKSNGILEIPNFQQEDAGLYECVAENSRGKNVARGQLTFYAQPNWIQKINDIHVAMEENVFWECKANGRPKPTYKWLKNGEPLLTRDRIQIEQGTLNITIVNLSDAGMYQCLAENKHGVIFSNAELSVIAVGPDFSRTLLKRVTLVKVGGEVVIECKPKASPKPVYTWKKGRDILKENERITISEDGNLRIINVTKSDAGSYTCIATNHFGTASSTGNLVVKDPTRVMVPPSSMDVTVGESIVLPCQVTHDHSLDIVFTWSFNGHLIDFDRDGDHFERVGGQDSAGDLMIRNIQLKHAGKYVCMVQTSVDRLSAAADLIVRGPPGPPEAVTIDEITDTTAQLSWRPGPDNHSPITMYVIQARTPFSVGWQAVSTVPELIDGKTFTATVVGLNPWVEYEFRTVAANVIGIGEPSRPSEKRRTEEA
Method: as §1, §2

[7] = target: T7, Human CNTN4 domain sample D1-6 (human, UniProt Q8IWV2 19-586, limits assumed)
T7 construct: domain: Domain 1 to Domain 6
T7 sequence (looked up): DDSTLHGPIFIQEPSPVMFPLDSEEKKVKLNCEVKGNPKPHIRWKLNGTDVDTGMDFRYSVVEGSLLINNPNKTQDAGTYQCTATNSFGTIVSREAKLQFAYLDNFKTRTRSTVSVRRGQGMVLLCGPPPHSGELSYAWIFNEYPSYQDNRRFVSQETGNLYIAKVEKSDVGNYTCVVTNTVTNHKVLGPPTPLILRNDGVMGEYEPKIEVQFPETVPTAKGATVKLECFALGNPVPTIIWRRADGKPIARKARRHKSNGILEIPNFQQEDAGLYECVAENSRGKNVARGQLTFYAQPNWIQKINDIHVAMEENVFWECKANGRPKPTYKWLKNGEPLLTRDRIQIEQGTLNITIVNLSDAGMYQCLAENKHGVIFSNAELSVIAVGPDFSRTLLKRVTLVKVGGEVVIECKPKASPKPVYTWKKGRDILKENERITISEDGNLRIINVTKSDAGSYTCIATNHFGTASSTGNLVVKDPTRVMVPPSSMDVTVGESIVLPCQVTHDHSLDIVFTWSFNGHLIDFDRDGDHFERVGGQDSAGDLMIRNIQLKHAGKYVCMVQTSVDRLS
Method: as §1, §2

binding result [1]: no binding | binding result [2]: binds | binding result [3]: binds | binding result [4]: no binding | binding result [5]: binds | binding result [6]: no binding | binding result [7]: no binding
B1: Anti-CNTN4 chicken-human chimeric IgG4 antibody AB1 (antibody, V domains shown)
VH: AVTLDESEGGLQTPGGALSLVCKASGFTFSSFNMFWVRQAPGKGLEYVAEISGGGGSTWYAPAVKGRATISRDNGQSTVRLQLNNLRAEDTGTYYCAKSADTWSYGAATIDAWGHGTEVIVSS
VL: ALTQPSSVSANLGETVKITCSGSSGSYGWYQQKSPGSAPVTLIYDNTNRPSDIPSRFSGSGSGSTGTLTITGVRAEDEAVYYCGGYDGSTDVFGAGTTLTVL
notes: Chicken variable domains of scFv AB1 on human IgG4 constant regions; It was purified on Kappa select resin, so the light chain is kappa; also called anti-CNTN4 antibody AB1; Anti-CNTN4 129 chimeric IgG4 antibody
